Data taken from patent publication EP4696312A1 (IMBIORAY (HANGZHOU) BIOMEDICINE CO., LTD., dated 2024).
Positions count from the first letter of the chain named.

Tests used:
Human Trop2 = target: T1, Human Trop2 (human, UniProt P09758 27-274); test: BLI (OctetR8), Trop2 on His-K probes, antibody in solution
T1 construct: Recombinant protein loaded onto His-K biosensors; also called TACSTD2; EGP-1
T1 sequence (looked up): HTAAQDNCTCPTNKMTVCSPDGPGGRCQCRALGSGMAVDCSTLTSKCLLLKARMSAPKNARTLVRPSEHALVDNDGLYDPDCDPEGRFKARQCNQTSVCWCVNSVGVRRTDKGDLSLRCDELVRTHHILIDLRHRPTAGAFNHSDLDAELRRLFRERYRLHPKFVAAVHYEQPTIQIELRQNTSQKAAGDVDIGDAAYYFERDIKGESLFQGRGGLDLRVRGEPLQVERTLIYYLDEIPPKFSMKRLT

Rhesus macaque Trop2 = target: T2, Rhesus macaque Trop2 (rhesus macaque, UniProt A0A5F8AGB8 27-274); test: as above
T2 construct: Recombinant protein loaded onto His-K biosensors
T2 sequence: T1 sequence (looked up) with M36V, S67N, I204V

B1: L2-conjugated antibody (anti-Trop2 monoclonal antibody conjugated to L2 linker) (antibody, human IgG1, V domains shown)
VH: EVQLVESGGGLVQPGGSLRLSCAASGFTFNNYAMSWVRQAPGKGLEWVSTISSDGTYTYYADSVKGRFTISRDNSKNTLYLQMNSLRAEDTAVYYCARHPPSYYYAFDYWGQGTTLTVSS
VL: EIVLTQSPGTLSLSPGERATLSCRASESVDSYGNSFIHWYQQKPGQAPRLLIYLASNLESGIPDRFSGSGSGTDFTLTISRLEPEDFAVYYCQQNNEDLWTFGGGTKLEIKA
modifications: L2 linker coupled to lysine residue(s); 1-4 (preferably 1-2) L2 linkers per antibody; chain and positions not stated; L2 linker (dibenzoazacyclooctyne-glutaryl-amino tetraethylene glycol-pentafluorophenyl acetylpiperidinate) coupled to lysine residue(s); 1-4 (preferably 1-2) L2 linkers per antibody; chain and positions not stated
notes: Each chain is the variable region followed by the constant region; also called IB12 (name of the expression plasmid)
Question: Which Kd (Human Trop2) does the source give for B1 here?
Answer: 22.6 nM

Question: What about the koff (Human Trop2) of the same binder?
Answer: 0.0127 s⁻¹

Question: And the kon (Human Trop2)?
Answer: 564000 M⁻¹ s⁻¹

Question: What about the koff (Rhesus macaque Trop2) of the same binder?
Answer: < 1e-07 s⁻¹

Question: What about the kon (Rhesus macaque Trop2) of the same binder?
Answer: 569000 M⁻¹ s⁻¹
